What is called Kd is the concentration at which binding is half-saturated. A higher Kd goes with weaker binding.

T1: PCSK9 V domain (450-692 of SEQ ID NO: 3) (human, UniProt Q8NBP7 450-692)
T1 construct: also called v-domain PCSK9
T1 chain: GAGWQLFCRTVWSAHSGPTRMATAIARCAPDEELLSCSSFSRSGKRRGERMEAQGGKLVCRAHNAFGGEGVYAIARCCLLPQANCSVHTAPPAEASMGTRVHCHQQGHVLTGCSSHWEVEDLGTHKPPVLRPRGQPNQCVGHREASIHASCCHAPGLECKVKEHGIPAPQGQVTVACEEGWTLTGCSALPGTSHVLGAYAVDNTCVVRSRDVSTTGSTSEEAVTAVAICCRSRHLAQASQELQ

B1: 9C9 (antibody, V domains shown)
VH: EVQLVESGGGLVQPGGSLRLSCVVSGFTFSSYWMSWVRQAPGKGLEWVANIKQDGSEKYYVDSVKGRFTISRDNAKNSLYLQMNSLRAEDTAVYYCARESNWGFAFDIWGQGTMVTVSS
VL: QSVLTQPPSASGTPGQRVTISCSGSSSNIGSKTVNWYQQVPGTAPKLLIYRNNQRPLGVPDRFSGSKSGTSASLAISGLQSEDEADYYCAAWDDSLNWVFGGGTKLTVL
B2: 16F12, anti-PCSK9 huIgG4 (antibody, V domains shown)
VH: QVHLVESGGGVVQPGRSLRLSCAASGFTFNSFGMHWVRQAPGKGLEWVALIWSDGSDEYYADSVKGRFTISRDNSKNTLYLQMNSLRAEDTAVYYCARAIAALYYYYGMDVWGQGTTVTVSS
VL: QSVLTQPPSVSAAPGQKVTISCSGSSSNIGNNFVSWYQQLPGTAPKLLIYDYNKRPSGIPDRFSGSKSGTSATLGITGLQTGDEADYYCGTWDSSLSAYVFGTGTRVTVLQ
notes: from hybridoma; also called 16F12 IgG4; 16F12.1
B3: 21B12 (antibody, V domains shown)
VH: QVQLVQSGAEVKKPGASVKVSCKASGYTLTSYGISWVRQAPGQGLEWMGWVSFYNGNTNYAQKLQGRGTMTTDPSTSTAYMELRSLRSDDTAVYYCARGYGMDVWGQGTTVTVSS
VL: QSALTQPASVSGSPGQSITISCTGTSSDVGGYNSVSWYQQHPGKAPKLMIYEVSNRPSGVSNRFSGSKSGNTASLTISGLQAEDEADYYCNSYTSTSMVFGGGTKLTVL
notes: lambda light chain; also called ABP 21B12; Ab 21B12
B4: 21B12, anti-PCSK9 huIgG4 (antibody, V domains shown)
VH: B3 VH
VL: QSALTQPASVSGSPGQSITISCTGTSSDVGGYNSVSWYQQHPGKAPKLMIYEVSNRPSGVSNRFSGSKSGNTASLTISGLQAEDEADYYCNSYTSTSMVFGGGTKLTVLQ
notes: from hybridoma; also called 21B12 IgG4; 21B12.1
B5: 3C4 (antibody, V domains shown)
VH: QVQLQESGPGLVKPSQTLSLTCTVSGGSISSSDYYWSWIRQHPGKGLEWIGYIYYSGSTYYNPSLKSRITISVDTSKNLFSLKLSSVTAADTAVYYCARGGVTTYYYAMDVWGQGTTVTVSS
VL: DIQMTQSPSSLSASVGDRVTITCRASQRISNYLSWYLQKPGIAPKLLIYAASSLQSGVPSRFSGSGSGTDFTLTISSLQSEDFATYYCQQSYSTPLIFGGGTKVEIK
B6: mouse PCSK9 (enzyme, UniProt Q80W65 35-694, looked up, not shown: small tags and cut ends)
chain: QDEDGDYEELMLALPSQEDGLADEAAHVATATFRRCSKEAWRLPGTYIVVLMEETQRLQIEQTAHRLQTRAARRGYVIKVLHIFYDLFPGFLVKMSSDLLGLALKLPHVEYIEEDSFVFAQSIPWNLERIIPAWHQTEEDRSPDGSSQVEVYLLDTSIQGAHREIEGRVTITDFNSVPEEDGTRFHRQASKCDSHGTHLAGVVSGRDAGVAKGTSLHSLRVLNCQGKGTVSGTLIGLEFIRKSQLIQPSGPLVVLLPLAGGYSRILNAACRHLARTGVVLVAAAGNFRDDACLYSPASAPEVITVGATNAQDQPVTLGTLGTNFGRCVDLFAPGKDIIGASSDCSTCFMSQSGTSQAAAHVAGIVARMLSREPTLTLAELRQRLIHFSTKDVINMAWFPEDQQVLTPNLVATLPPSTHETGGQLLCRTVWSAHSGPTRTATATARCAPEEELLSCSSFSRSGRRRGDWIEAIGGQQVCKALNAFGGEGVYAVARCCLVPRANCSIHNTPAARAGLETHVHCHQKDHVLTGCSFHWEVEDLSVRRQPALRSRRQPGQCVGHQAASVYASCCHAPGLECKIKEHGISGPSEQVTVACEAGWTLTGCNVLPGASLTLGAYSVDNLCVARVHDTARADRTSGEATVAAAICCRSRPSAKASWVQ
notes: biotinylated, tag not mentioned, in the hybridoma screen; also called mPCSK9-8xHIS; mPCSK9

Test [1] addresses T2, human PCSK9 (proprotein convertase subtilisin kexin type 9) (human, UniProt Q8NBP7 31-692).
T2 construct: Used untagged, biotinylated, V5/His- or His-tagged depending on the assay; also called hPCSK9; huPCSK9
The test can be described thus: BIAcore solution equilibrium, pH 6.0. Background: In SPR one partner is held on a chip, and binding of the other changes the refractive index at the surface.

For test [2], the target named is T2, human PCSK9 (proprotein convertase …). The test can be described thus: BIAcore kinetic assay 1, His-tagged huPCSK9 captured, pH 5.5.
Test [3] has the same target. Kind of test: BIAcore solution equilibrium, pH 7.4; pH 7.4.
The target is the same in test [4]. The test can be described thus: BIAcore kinetic assay 1, His-tagged huPCSK9 captured, pH 7.4.
Test [5] shares this target. Kind of test: BIAcore kinetic assay 1, His-tagged huPCSK9 captured, pH 6.0.
Test [6] shares this target. The test can be described thus: BIAcore solution equilibrium, pH 5.5.
For test [7], the target named is B6. The test can be described thus: KinExA solution equilibrium. On the technique in general: A kinetic exclusion assay measures how much of one partner remains free in solution.
The target in test [8] is B6. Kind of test: BIAcore, antibody immobilised, pH 7.4.
Test [9] deals with T1, PCSK9 V domain (450-692 of SEQ ID NO: 3). The test can be described thus: native PAGE gel shift. In general terms: Mobility shift assays separate free from complexed probe on a gel.
The target of test [10] is B6. Kind of test: BIAcore solution equilibrium.
Test [11] addresses T1, PCSK9 V domain (450-692 of SEQ ID NO: 3). Kind of test: domain binding ELISA.
The target of another test is T3, 31H4, anti-PCSK9 huIgG4.
T3 construct: from hybridoma
The test can be described thus: KinExA solution equilibrium, % free 31H4.1 (100 pM) against [mPCSK9].

In the test “16F12, anti-PCSK9 huIgG4” the target is B2. Kind of test: KinExA solution equilibrium, % free 16F12 (100 pM) against [mPCSK9].

Take B1: the Kd stood at 2.3 nM in test [1]; 3.2 nM in [2]; 0.56 nM in [3]; 0.56 nM in test [4]; 2.3 nM in [5]; 3.2 nM in [6].

B2: the Kd with mouse PCSK9 [7] came out at 0.223 nM; with mouse PCSK9 [8], 6.4 nM.

As to B3, the binding result in test [9] is “no binding”.

On to B4, for which the Kd in the test with mouse PCSK9 [8] worked out at 460 nM; with mouse PCSK9 [10], 17 nM.

With B5, in test [11], the binding result is reported as “binds”.

Turning to B6, the “IC50 (read off the curve)” value is approximately 0.6 nM with 31H4, anti-PCSK9 huIgG4 and approximately 0.4 nM in the test with 16F12, anti-PCSK9 huIgG4.

(Values after patent publication US20130072665A1 (Amgen, published 2013).)
